For assay [1], the target named is rmCTLA4 (mouse) (UniProt P09793). The experiment in a line: ELISA. A general note: In an ELISA, binding on a coated surface is turned into a signal by an enzyme label.
Assay [2] has the same target. Kind of assay: ELISA. The source holds these as a separate data set.
The target is the same in assay [3]. Kind of assay: ELISA. The source holds these as a separate data set.
The target of another assay is Collagen I (human) (UniProt P02452). Kind of assay: ELISA.
The next assay deals with Fibronectin (human) (UniProt P02751). Kind of assay: ELISA.
Fibronectin (human), sequence (P02751 32-2477): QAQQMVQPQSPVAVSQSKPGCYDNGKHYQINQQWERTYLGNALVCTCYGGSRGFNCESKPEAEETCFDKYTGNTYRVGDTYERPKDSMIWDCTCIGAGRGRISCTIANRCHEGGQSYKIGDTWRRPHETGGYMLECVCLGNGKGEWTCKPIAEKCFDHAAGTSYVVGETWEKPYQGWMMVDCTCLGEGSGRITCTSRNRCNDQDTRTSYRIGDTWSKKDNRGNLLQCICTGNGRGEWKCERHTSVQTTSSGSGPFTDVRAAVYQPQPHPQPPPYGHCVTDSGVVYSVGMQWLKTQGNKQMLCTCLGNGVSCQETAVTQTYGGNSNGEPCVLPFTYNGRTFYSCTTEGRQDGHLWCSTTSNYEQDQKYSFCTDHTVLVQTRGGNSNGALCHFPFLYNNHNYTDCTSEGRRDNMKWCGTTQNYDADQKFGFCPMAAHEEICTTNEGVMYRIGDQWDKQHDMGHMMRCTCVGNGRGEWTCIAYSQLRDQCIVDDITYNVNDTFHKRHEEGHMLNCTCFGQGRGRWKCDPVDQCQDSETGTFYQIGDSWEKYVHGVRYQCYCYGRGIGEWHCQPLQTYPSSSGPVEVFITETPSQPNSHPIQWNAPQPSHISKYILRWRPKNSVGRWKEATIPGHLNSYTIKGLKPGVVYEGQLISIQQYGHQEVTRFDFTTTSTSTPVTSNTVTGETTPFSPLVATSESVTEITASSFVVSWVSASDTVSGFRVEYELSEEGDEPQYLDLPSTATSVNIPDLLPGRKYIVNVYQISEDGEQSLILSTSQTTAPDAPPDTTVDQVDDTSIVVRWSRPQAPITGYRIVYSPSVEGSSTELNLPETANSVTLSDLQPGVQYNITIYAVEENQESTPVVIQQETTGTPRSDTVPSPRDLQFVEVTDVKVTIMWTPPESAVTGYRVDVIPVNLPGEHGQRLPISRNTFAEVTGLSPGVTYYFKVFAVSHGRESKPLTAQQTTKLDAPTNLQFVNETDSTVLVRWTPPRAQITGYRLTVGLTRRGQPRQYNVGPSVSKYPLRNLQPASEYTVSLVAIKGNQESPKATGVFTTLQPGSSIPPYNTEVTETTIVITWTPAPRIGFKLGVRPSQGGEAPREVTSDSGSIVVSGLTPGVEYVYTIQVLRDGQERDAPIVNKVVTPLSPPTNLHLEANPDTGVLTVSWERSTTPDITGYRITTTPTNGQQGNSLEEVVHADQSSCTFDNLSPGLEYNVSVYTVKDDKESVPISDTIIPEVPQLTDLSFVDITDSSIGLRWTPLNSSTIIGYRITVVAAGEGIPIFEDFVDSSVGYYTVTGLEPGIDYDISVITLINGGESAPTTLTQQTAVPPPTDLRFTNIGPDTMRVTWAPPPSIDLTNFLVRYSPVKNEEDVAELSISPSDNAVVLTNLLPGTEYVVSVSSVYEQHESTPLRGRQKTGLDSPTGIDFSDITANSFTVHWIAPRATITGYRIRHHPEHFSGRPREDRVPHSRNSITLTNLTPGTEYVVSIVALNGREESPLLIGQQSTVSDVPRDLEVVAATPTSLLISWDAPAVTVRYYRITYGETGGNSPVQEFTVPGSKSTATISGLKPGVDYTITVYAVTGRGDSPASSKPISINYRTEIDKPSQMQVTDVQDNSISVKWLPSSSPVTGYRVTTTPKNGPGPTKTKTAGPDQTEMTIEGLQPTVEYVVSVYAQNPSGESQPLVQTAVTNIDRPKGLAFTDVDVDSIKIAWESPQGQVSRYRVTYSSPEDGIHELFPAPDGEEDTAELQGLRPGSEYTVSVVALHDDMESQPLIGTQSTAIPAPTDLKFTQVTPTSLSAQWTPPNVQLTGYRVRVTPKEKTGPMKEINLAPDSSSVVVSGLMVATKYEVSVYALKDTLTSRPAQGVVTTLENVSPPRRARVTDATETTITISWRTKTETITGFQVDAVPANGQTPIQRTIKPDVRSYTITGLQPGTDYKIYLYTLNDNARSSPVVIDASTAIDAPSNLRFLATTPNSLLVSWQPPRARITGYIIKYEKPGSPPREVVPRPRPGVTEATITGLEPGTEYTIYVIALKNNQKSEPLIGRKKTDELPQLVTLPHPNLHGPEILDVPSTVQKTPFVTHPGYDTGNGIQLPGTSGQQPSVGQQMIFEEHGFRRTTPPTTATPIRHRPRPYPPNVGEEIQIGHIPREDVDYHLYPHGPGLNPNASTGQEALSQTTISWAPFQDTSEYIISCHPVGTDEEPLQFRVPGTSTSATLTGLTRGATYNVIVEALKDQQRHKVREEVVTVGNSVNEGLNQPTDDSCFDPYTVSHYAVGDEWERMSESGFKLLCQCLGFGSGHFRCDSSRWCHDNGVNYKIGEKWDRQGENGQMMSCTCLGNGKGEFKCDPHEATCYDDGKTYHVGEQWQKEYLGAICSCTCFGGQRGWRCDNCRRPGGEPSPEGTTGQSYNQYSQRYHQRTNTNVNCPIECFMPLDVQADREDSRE
The target of assay [4] is bovine collagen (Symatese), polymerized gel (bovine). The experiment in a line: retention on polymerized bovine collagen gel, antibody loaded at 10 µg/mL, released antibody measured by ELISA.

Like-named read-outs stand apart in the source and are kept apart here.

As a reminder, the Kd is the concentration at which binding is half-saturated. Low values mean a tighter complex, high ones a looser complex.

rmCTLA4 (mouse), sequence (P09793 36-162): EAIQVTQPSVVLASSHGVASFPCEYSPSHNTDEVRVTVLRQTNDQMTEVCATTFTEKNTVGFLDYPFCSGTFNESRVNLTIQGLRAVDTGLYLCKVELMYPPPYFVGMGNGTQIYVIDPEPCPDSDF
Collagen I (human), sequence (P02452 162-1218, chain 1 of 2): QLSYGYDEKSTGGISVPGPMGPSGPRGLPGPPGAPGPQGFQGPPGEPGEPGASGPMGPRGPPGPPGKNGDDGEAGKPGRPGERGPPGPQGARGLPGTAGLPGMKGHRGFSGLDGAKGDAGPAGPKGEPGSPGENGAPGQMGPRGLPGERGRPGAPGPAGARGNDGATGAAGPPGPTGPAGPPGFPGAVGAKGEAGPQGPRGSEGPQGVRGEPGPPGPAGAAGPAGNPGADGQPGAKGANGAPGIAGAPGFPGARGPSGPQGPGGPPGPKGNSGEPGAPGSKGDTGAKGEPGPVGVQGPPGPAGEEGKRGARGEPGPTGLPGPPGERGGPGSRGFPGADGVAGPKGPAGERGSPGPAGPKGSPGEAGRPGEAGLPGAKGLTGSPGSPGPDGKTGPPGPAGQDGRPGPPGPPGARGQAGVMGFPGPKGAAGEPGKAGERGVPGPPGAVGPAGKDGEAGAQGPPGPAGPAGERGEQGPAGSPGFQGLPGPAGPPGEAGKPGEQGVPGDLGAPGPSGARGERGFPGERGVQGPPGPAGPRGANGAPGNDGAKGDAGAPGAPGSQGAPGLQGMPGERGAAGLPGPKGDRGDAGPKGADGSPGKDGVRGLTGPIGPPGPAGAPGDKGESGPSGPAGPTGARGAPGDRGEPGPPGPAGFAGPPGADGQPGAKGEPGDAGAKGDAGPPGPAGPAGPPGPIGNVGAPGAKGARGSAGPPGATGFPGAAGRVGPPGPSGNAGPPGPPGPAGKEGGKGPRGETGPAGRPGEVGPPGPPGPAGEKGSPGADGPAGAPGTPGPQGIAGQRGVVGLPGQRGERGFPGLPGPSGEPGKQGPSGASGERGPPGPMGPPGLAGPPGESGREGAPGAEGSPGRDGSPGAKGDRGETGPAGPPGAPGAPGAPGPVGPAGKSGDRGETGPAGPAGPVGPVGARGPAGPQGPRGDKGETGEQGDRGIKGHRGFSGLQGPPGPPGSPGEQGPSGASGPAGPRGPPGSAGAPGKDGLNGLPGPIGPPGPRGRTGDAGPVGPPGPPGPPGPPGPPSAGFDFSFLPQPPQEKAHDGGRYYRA
Collagen I (human), sequence (P08123 80-1119, chain 2 of 2, further chain): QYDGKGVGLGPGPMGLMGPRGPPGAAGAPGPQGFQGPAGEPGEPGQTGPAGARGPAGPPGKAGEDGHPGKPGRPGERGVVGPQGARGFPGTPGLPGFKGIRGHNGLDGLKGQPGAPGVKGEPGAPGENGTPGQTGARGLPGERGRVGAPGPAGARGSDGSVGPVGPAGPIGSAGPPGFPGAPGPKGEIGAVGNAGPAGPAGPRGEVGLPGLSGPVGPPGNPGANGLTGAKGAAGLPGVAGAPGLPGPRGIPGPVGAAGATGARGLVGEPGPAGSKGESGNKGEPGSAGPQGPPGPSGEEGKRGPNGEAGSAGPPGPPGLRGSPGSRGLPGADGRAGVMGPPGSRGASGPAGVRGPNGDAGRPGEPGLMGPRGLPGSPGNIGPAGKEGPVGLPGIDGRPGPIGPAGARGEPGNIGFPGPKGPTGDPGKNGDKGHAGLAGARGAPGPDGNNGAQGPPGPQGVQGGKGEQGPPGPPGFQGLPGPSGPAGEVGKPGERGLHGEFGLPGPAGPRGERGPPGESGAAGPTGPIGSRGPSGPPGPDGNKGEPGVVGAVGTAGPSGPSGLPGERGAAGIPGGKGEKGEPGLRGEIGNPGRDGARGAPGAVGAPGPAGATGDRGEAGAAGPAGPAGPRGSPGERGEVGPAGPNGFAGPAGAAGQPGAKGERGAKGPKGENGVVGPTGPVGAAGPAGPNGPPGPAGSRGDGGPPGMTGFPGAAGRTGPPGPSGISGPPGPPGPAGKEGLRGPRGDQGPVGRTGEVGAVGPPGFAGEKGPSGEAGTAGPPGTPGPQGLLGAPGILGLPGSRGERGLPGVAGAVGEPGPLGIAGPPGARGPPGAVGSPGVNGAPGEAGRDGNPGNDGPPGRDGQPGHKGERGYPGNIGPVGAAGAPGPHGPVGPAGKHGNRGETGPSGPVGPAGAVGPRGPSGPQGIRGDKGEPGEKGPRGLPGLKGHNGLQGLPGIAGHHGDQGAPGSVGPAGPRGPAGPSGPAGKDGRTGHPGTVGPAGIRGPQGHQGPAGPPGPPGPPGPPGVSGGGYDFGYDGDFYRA

Consider 4F10, for which the Kd was 0.1 nM with rmCTLA4 (mouse) [1] and 0.101 nM with rmCTLA4 (mouse) [2].

In the assay with rmCTLA4 (mouse) [2], 9H10 had a Kd of 15 nM.

As for PlGF-2123-144-4F10, the Kd with rmCTLA4 (mouse) [3] was found to be 0.157 nM; with Collagen I (human), 26.7 nM; with rmCTLA4 (mouse) [2], 0.16 nM; with Fibronectin (human), 4.7 nM.

In the case of PlGF-2123-144-9H10, the values for the Kd with Collagen I (human), with rmCTLA4 (mouse) [2] and with Fibronectin (human) were 1.3 nM, 5.7 nM and 0.87 nM, respectively.

In the case of “rat anti-mouse PD-L1 (clone 10F.9G2), wild-type (antibody)”, in assay [4], the % of antibody released by plasmin digestion after buffer changes was less than 0.1%.

Values taken from patent US20200123228A1.
